Data as given in patent publication US20250304965A1, “DOUBLE-STRANDED RNA MOLECULE AND PHARMACEUTICAL USE THEREOF” (MACAU UNIVERSITY OF SCIENCE AND TECHNOLOGY, priority 2022, published 2025).
Like-named read-outs stand apart in the source and are kept apart here. [Ψ] = pseudouridine

B1: GL10 mimic: chemically modified GL2 double-stranded RNA (5-methyluridine and pseudouridine); antisense SEQ ID NO: 20, sense SEQ ID NO: 24, length 41 (nucleic acid)
antisense: AUAAGGAAUCUGUAGAAGTUCGAUUCUUCUUGGGCUUACCA
sense: UGGUAAGCCCAAGAAGAAUCGAACUUCUACAGAUUCCUUAU
modifications: antisense: RNA, [Ψ] at 20, backbone not given here; sense: RNA, backbone not given here; further chemistry not fully specified
B2: GL2 mimic: double-stranded RNA from Ganoderma lucidum tRNA-Ile(GAU); antisense SEQ ID NO: 3, sense SEQ ID NO: 12, length 41 (nucleic acid)
antisense: AUAAGGAAUCUGUAGAAGUUCGAUUCUUCUUGGGCUUACCA
sense: UGGUAAGCCCAAGAAGAAUCGAACUUCUACAGAUUCCUUAU
modifications: RNA, backbone not given here
B3: GL11 mimic: chemically modified GL2 double-stranded RNA (5-methyluridine); antisense SEQ ID NO: 21, sense SEQ ID NO: 25, length 41 (nucleic acid)
antisense: AUAAGGAAUCUGUAGAAGTUCGAUUCUUCUUGGGCUUACCA
sense: UGGUAAGCCCAAGAAGAAUCGAACUUCUACAGAUUCCUUAU
modifications: RNA, backbone not given here; further chemistry not fully specified
B4: GL1 mimic: double-stranded RNA from Ganoderma lucidum tRNA-Ile(GAU); antisense SEQ ID NO: 2, sense SEQ ID NO: 11, length 33 (nucleic acid)
antisense: AAGCCUAUAAUUUAAAGGUAGAAUAAUUUCUUG
sense: CAAGAAAUUAUUCUACCUUUAAAUUAUAGGCUU
modifications: RNA, backbone not given here

Columns and labels:
Type in all cases: cell-based, human
HepG2 cells = assay: MTT cytotoxicity analysis, liver cancer cells HepG2; details: for IC50: HepG2 liver cancer cells, 48 hours of treatment, Lipofectamine RNAiMAX transfection reagent, MTT, read-out: Median inhibitory concentration IC50; for inhibition of growth and proliferation (cell viability vs control and RNAiMAX group): liver cancer cells HepG2, 6.25-200 nM, 48 hours, FIG. 6-8
Procedure: (§1) A2780 and HCT-8 cell lines were cultured in RPMI 1640 medium containing 10% FBS and 1% penicillin/streptomycin. HepG2 cell lines were cultured in MEM medium containing 10% FBS and 1% penicillin/streptomycin. All the above cell lines were cultured at 37° C. in a humidified atmosphere containing 5% CO2.
(§2) In the cytotoxicity analysis, exponentially growing cells of each cancer cell line were inoculated at a density of 5000 cells per well in a 100 μL medium in a 96-well microplate and allowed to adhere for 24 hours prior to treatment. Then obtained RNA molecules at successive concentrations with a nucleic acid transfer vector, namely, Lipofectamine™ RNAiMAX transfection reagent (Thermo Fisher Scientific, United States), were added to the cells. After 48 hours of treatment, MTT solution (50 μL per well, 1 mg/mL solution) was added to each well and incubated at 37° C. for 4 hours. Then 200 μL of dimethyl sulfoxide (DMSO) was added, and an optical density of the resulting solution was measured via calorimetry by using SpectraMax 190 microplate reader (Molecular Devices, United States) at 570 nm. Dose-response curves were obtained and IC50 values were calculated via GraphPad Prism 5 (GraphPad, United States). Each experiment was performed three times.
(§3) Before addition of the MTT solution, the inventor determined the cytotoxic effects and IC 50 of the GL1, GL2, GL4, and GL6 mimics at different concentrations of 6.25 nM, 12.5 nM, 25 nM, 50 nM, 100 nM, and 200 nM on A2780, HCT-8 and HepG2 cells. After 48 hours of the treatment of the double-stranded RNA molecules, the cell viability of these cells was compared with that of the control group and the RNAiMAX group. Paclitaxel was used in a comparative example. […] The results were compared with those of the control group and the RNAiMAX group using the transfection agent. For IC50, refer to Table 4. Paclitaxel was used in a comparative example.
(§4) Then the inventor specifically determined the cytotoxic effects and IC50 of the RNA molecules GL2 mimic and different chemically modified GL10, GL11 and GL12 mimics at different concentrations of 6.25 nM, 12.5 nM, 25 nM, 50 nM, 100 nM, and 200 nM on A2780, HCT-8 and HepG2 cells. […] For IC50, refer to Table 5. Paclitaxel was used in a comparative example.

A2780 cells = assay: MTT cytotoxicity analysis, ovarian cancer cells A2780; details: for IC50: A2780 ovarian cancer cells, 48 hours of treatment, Lipofectamine RNAiMAX transfection reagent, MTT, read-out: Median inhibitory concentration IC50; for inhibition of growth and proliferation (cell viability vs control and RNAiMAX group): ovarian cancer cells A2780, 6.25-200 nM, 48 hours, FIG. 6-8
Procedure: as §1, §2, §3, §4

HCT-8 cells = assay: MTT cytotoxicity analysis, colorectal cancer cells HCT-8; details: for IC50: HCT-8 colorectal cancer cells, 48 hours of treatment, Lipofectamine RNAiMAX transfection reagent, MTT, read-out: Median inhibitory concentration IC50; for inhibition of growth and proliferation (cell viability vs control and RNAiMAX group): colon cancer cells HCT-8, 6.25-200 nM, 48 hours, FIG. 6-8
Procedure: as §1, §2, §3, §4

Molecule	IC50 (HepG2 cells; Homo sapiens) [nM]	IC50 (A2780 cells; Homo sapiens) [nM]	IC50 (HCT-8 cells; Homo sapiens) [nM]	IC50 (HepG2 cells) [nM]	inhibition of growth and proliferation (cell viability vs control and RNAiMAX group) (HepG2 cells)	inhibition of growth and proliferation (cell viability vs control and RNAiMAX group) (A2780 cells)	IC50 (HCT-8 cells) [nM]	inhibition of growth and proliferation (cell viability vs control and RNAiMAX group) (HCT-8 cells)	IC50 (A2780 cells) [nM]	inhibition of growth and proliferation (cell viability vs control and RNAiMAX group) (HepG2 cells; listed as GL2)	inhibition of growth and proliferation (cell viability vs control and RNAiMAX group) (A2780 cells; listed as GL2)	inhibition of growth and proliferation (cell viability vs control and RNAiMAX group) (HCT-8 cells; listed as GL2)
CC(=O)O[C@H]1C(=O)[C@@]2(C)[C@H]([C@H](OC(=O)c3ccccc3)[C@]3(O)C[C@H](OC(=O)[C@H](O)[C@@H](NC(=O)c4ccccc4)c4ccccc4)C(C)=C1C3(C)C)[C@]1(OC(C)=O)CO[C@@H]1C[C@@H]2O [Taxol, Paclitaxel, reference compound]	678	73.2	621	–	–	–	–	–	–	–	–	–
GL4 mimic: double-stranded RNA from Ganoderma lucidum tRNA-Ile(GAU); antisense SEQ ID NO: 5, sense SEQ ID NO: 14, length 22 (antisense AAGCCUAUAAUUUAAAGGUAGA; sense UCUACCUUUAAAUUAUAGGCUU; RNA, backbone not given here)	–	–	–	350	effective in inhibiting growth and proliferation	effective in inhibiting growth and proliferation	950	effective in inhibiting growth and proliferation	–	–	–	–
GL5: double-stranded RNA from Ganoderma lucidum tRNA-Ile(GAU); antisense SEQ ID NO: 6, sense SEQ ID NO: 15, length 19 (antisense AAGCCUAUAAUUUAAAGGU; sense ACCUUUAAAUUAUAGGCUU; RNA, backbone not given here)	–	–	–	–	have the effect of inhibiting the growth and proliferation of cancer cells	have the effect of inhibiting the growth and proliferation of cancer cells	–	have the effect of inhibiting the growth and proliferation of cancer cells	–	–	–	–
GL6 mimic: double-stranded RNA from Ganoderma lucidum tRNA-Ile(GAU); antisense SEQ ID NO: 7, sense SEQ ID NO: 16, length 22 (antisense UCGAUUCUUCUUGGGCUUACCA; sense UGGUAAGCCCAAGAAGAAUCGA; RNA, backbone not given here)	–	–	–	400	effective in inhibiting growth and proliferation	effective in inhibiting growth and proliferation	600	effective in inhibiting growth and proliferation	–	–	–	–
GL7: double-stranded RNA from Ganoderma lucidum tRNA-Ile(GAU); antisense SEQ ID NO: 8, sense SEQ ID NO: 17, length 19 (antisense AUUCUUCUUGGGCUUACCA; sense UGGUAAGCCCAAGAAGAAU; RNA, backbone not given here)	–	–	–	–	have the effect of inhibiting the growth and proliferation of cancer cells	have the effect of inhibiting the growth and proliferation of cancer cells	–	have the effect of inhibiting the growth and proliferation of cancer cells	–	–	–	–
GL8: double-stranded RNA from Ganoderma lucidum tRNA-Ile(GAU); antisense SEQ ID NO: 9, sense SEQ ID NO: 18, length 22 (antisense AGUUCGAUUCUUCUUGGGCUUA; sense UAAGCCCAAGAAGAAUCGAACU; RNA, backbone not given here)	–	–	–	–	have the effect of inhibiting the growth and proliferation of cancer cells	have the effect of inhibiting the growth and proliferation of cancer cells	–	have the effect of inhibiting the growth and proliferation of cancer cells	–	–	–	–
GL9: double-stranded RNA from Ganoderma lucidum tRNA-Ile(GAU); antisense SEQ ID NO: 10, sense SEQ ID NO: 19, length 19 (antisense UCGAUUCUUCUUGGGCUUA; sense UAAGCCCAAGAAGAAUCGA; RNA, backbone not given here)	–	–	–	–	have the effect of inhibiting the growth and proliferation of cancer cells	have the effect of inhibiting the growth and proliferation of cancer cells	–	have the effect of inhibiting the growth and proliferation of cancer cells	–	–	–	–
B1	–	–	–	144	have a dose-dependent effect on inhibiting the growth and proliferation	have a dose-dependent effect on inhibiting the growth and proliferation	39.6	have a dose-dependent effect on inhibiting the growth and proliferation	51.9	–	–	–
B2	–	–	–	240	have a dose-dependent effect on inhibiting the growth and proliferation	have a dose-dependent effect on inhibiting the growth and proliferation	36.3	have a dose-dependent effect on inhibiting the growth and proliferation	57.2	effective in inhibiting growth and proliferation	effective in inhibiting growth and proliferation	effective in inhibiting growth and proliferation
B3	–	–	–	85.3	have a dose-dependent effect on inhibiting the growth and proliferation	have a dose-dependent effect on inhibiting the growth and proliferation	31.5	have a dose-dependent effect on inhibiting the growth and proliferation	17.2	–	–	–
B4	–	–	–	350	effective in inhibiting growth and proliferation	effective in inhibiting growth and proliferation	84	effective in inhibiting growth and proliferation	225	–	–	–
